From patent publication US20140087995A1 (published 2014) come the findings set out here.

T1: human amylin 3(a) receptor (human calcitonin receptor co-expressed with RAMP-3) (human, UniProt P30988 25-474; O60896 24-148, limits assumed)
T1 sequence (looked up) 1: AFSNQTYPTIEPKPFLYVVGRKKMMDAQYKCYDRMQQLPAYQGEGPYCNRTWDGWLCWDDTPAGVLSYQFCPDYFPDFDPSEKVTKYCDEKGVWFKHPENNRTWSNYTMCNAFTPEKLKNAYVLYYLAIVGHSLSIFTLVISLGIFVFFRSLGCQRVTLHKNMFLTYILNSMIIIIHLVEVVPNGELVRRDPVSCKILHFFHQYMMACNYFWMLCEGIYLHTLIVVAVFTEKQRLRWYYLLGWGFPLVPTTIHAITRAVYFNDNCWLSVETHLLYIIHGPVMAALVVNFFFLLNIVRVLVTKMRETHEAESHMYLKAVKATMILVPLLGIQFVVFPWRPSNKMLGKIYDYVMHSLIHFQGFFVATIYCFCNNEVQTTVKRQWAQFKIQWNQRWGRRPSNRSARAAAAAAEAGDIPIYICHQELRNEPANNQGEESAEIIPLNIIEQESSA
T1 sequence (looked up) 2: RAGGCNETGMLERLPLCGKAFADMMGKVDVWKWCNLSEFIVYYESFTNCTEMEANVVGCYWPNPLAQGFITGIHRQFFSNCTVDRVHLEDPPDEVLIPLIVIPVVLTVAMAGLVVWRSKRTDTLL

B1: N^α1-[(4S)-4-carboxy-4-(19-carboxynonadecanoylamino)butanoyl]-[Asp14,Arg17,Pro21,Pro27,Pro37]-h-amylin (peptide)
peptide: {C20 diacid-γGlu}-KCNTATCATQRLADFLRHSSPNFGAIPSSTNVGSNTP-NH2
modifications: disulfide 2-7
SMILES: CC[C@H](C)[C@H](NC(=O)[C@H](C)NC(=O)CNC(=O)[C@H](Cc1ccccc1)NC(=O)[C@H](CC(N)=O)NC(=O)[C@@H]1CCCN1C(=O)[C@H](CO)NC(=O)[C@H](CO)NC(=O)[C@H](Cc1c[nH]cn1)NC(=O)[C@H](CCCNC(=N)N)NC(=O)[C@H](CC(C)C)NC(=O)[C@H](Cc1ccccc1)NC(=O)[C@H](CC(=O)O)NC(=O)[C@H](C)NC(=O)[C@H](CC(C)C)NC(=O)[C@H](CCCNC(=N)N)NC(=O)[C@H](CCC(N)=O)NC(=O)[C@@H](NC(=O)[C@H](C)NC(=O)[C@@H]1CSSC[C@H](NC(=O)[C@H](CCCCN)NC(=O)CC[C@H](NC(=O)CCCCCCCCCCCCCCCCCCC(=O)O)C(=O)O)C(=O)N[C@@H](CC(N)=O)C(=O)N[C@@H]([C@@H](C)O)C(=O)N[C@@H](C)C(=O)N[C@@H]([C@@H](C)O)C(=O)N1)[C@@H](C)O)C(=O)N1CCC[C@H]1C(=O)N[C@@H](CO)C(=O)N[C@@H](CO)C(=O)N[C@H](C(=O)N[C@@H](CC(N)=O)C(=O)N[C@H](C(=O)NCC(=O)N[C@@H](CO)C(=O)N[C@@H](CC(N)=O)C(=O)N[C@H](C(=O)N1CCC[C@H]1C(N)=O)[C@@H](C)O)C(C)C)[C@@H](C)O
notes: also called compound 10
B2: N^α1-[(4S)-4-carboxy-4-(19-carboxynonadecanoylamino)butanoyl]-[Glu14,Arg17,Pro21,Pro25,Pro28,Pro29,Pro37]-h-amylin (peptide)
peptide: {C20 diacid-γGlu}-KCNTATCATQRLAEFLRHSSPNFGPILPPTNVGSNTP-NH2
modifications: disulfide 2-7
SMILES: CC[C@H](C)[C@H](NC(=O)[C@@H]1CCCN1C(=O)CNC(=O)[C@H](Cc1ccccc1)NC(=O)[C@H](CC(N)=O)NC(=O)[C@@H]1CCCN1C(=O)[C@H](CO)NC(=O)[C@H](CO)NC(=O)[C@H](Cc1c[nH]cn1)NC(=O)[C@H](CCCNC(=N)N)NC(=O)[C@H](CC(C)C)NC(=O)[C@H](Cc1ccccc1)NC(=O)[C@H](CCC(=O)O)NC(=O)[C@H](C)NC(=O)[C@H](CC(C)C)NC(=O)[C@H](CCCNC(=N)N)NC(=O)[C@H](CCC(N)=O)NC(=O)[C@@H](NC(=O)[C@H](C)NC(=O)[C@@H]1CSSC[C@H](NC(=O)[C@H](CCCCN)NC(=O)CC[C@H](NC(=O)CCCCCCCCCCCCCCCCCCC(=O)O)C(=O)O)C(=O)N[C@@H](CC(N)=O)C(=O)N[C@@H]([C@@H](C)O)C(=O)N[C@@H](C)C(=O)N[C@@H]([C@@H](C)O)C(=O)N1)[C@@H](C)O)C(=O)N[C@@H](CC(C)C)C(=O)N1CCC[C@H]1C(=O)N1CCC[C@H]1C(=O)N[C@H](C(=O)N[C@@H](CC(N)=O)C(=O)N[C@H](C(=O)NCC(=O)N[C@@H](CO)C(=O)N[C@@H](CC(N)=O)C(=O)N[C@H](C(=O)N1CCC[C@H]1C(N)=O)[C@@H](C)O)C(C)C)[C@@H](C)O
notes: also called compound 4

Numbered stars: 1 amine (or outer) side, 2 acyl side, 3 side chain; on linkers, the order of the positions; unused ones are H or OH. Bridge positions count the residues as written; N and C are the ends. Side chains are listed from the residue outwards. Ends that are not written are not given here. * marks the point of attachment. C20 diacid = O=C(O)CCCCCCCCCCCCCCCCCCC(=O)*; γGlu = O=C(O)[C@H](CCC(=O)[*:2])N[*:1]; AEEA = NCCOCCOCC(=O)O

The target in the test is T1, human amylin 3(a) receptor (human …). Kind of test: cell-based or functional assay.
As to K([γGlu-γGlu-C20 diacid])CNTATCATQRLAEFLRHSSPNFGAIPSSTNVGSNTP-NH2 (disulfide 2-7 (inferred), also called compound 13), the “Ratio hCT/hAmylin funct.” value was found to be 2.2.

On to {C20 diacid-γGlu}-KCNTATCATQRLAEFLRHSSPNFGAIPSSTNVGSNTP-NH2 (disulfide 2-7 (inferred), also called compound 8), for which the “Ratio hCT/hAmylin funct.” value came out at 1.1.

As for {C20 diacid-γGlu}-KCNTATCATQRLAEFLRHSSPNFGAIPSSTNVGSDTP-NH2 (disulfide 2-7 (inferred), also called compound 11), the “Ratio hCT/hAmylin funct.” value is 0.9. In the case of B1 it was 1; in that of {C20 diacid-γGlu}-KCNTATCATQRLAEFLRHSSPNFGAIPSSTNVGSETY-NH2 (disulfide 2-7 (inferred), also called compound 22), 3.8; in that of K([γGlu-C20 diacid])CNTATCATQRLAHFLRHSSPNFGAIPSSTNVGPNTP-NH2 (disulfide 2-7 (inferred)), 0.8. Regarding {C20 diacid-γGlu}-KCNTATCATQRLAEFLRHSSPNFGAILPSTNVGSETY-NH2 (disulfide 2-7 (inferred), also called compound 33), the “Ratio hCT/hAmylin funct.” value stood at 2.2. As for {C20 diacid-γGlu}-KCNTATCATQRLAEFLRHSSPNFGAPLSSTNVGSNTP-NH2 (disulfide 2-7 (inferred), also called compound 5), the “Ratio hCT/hAmylin funct.” value worked out at 1. In the case of K([γGlu-C20 diacid])CNTATCATQRLAEFLRHSSPNFGAIPSSTNVGPNTP-NH2 (disulfide 2-7 (inferred)) it was 0.9; in that of {C20 diacid-γGlu-γGlu}-KCNTATCATQRLAEFLRHSSPNFGAIPSSTNVGSNTP-NH2 (disulfide 2-7 (inferred), also called compound 14), 1.6; in that of {C20 diacid-γGlu}-GRCNTATCATQRLAHFLRHSSPNFGAIPSSTNVGPNTY-NH2 (disulfide 3-8 (inferred)), 2.9. Consider {C20 diacid-γGlu}-GRCNTATCATQRLAAFLRHSSPNFGAIPSSTNVGPNTY-NH2 (disulfide 3-8 (inferred)), for which the “Ratio hCT/hAmylin funct.” value is 2.1. For {C20 diacid-γGlu-AEEA-AEEA}-KCNTATCATQRLAEFLRHSSPNFGAIPSSTNVGSNTP-NH2 (disulfide 2-7 (inferred), also called compound 20) the value was 3.6; for B2, 1.2; for K([γGlu-C20 diacid])CNTATCATQRLAEFLRHSSPNFGAIPSSTNVGSNTP-NH2 (disulfide 2-7 (inferred), also called compound 12), 1.8.
